According to PMC11387410:

Columns and labels:
[1] = target: LgBiT-BOK-TMD (transmembrane domain of BOK as NanoBiT fusion) (UniProt Q9UMX3); experiment: split reporter (BiFC, NanoBiT); NanoBiT split luciferase in living HEK293FT cells; LgBiT-TMD and SmBiT-TMD plasmids transfected 1:1, 24 h; cells in Opti-MEM, 5 uM coelenterazine-h, luminescence 30 min after substrate; absolute RLU (Fig. 1C) or normalized to mTurquoise2 fluorescence and set relative to BAX-TMD/BAX-TMD = 1 (Fig. 1F, 6C)
[2] = target: LgBiT-BOK-TMD (transmembrane domain of BOK as NanoBiT fusion) (UniProt Q9UMX3); experiment: split reporter (BiFC, NanoBiT); NanoBiT split luciferase in living MCF-7 cells; transfected 24 h; luminescence relative to the positive control BAX-TMD/BAX-TMD
[3] = target: BAX-TMD (transmembrane domain of BAX) as NanoBiT fusion (UniProt Q07812); experiment: split reporter (BiFC, NanoBiT); NanoBiT split luciferase in living HEK293FT cells; LgBiT-TMD and SmBiT-TMD plasmids transfected 1:1, 24 h; cells in Opti-MEM, 5 uM coelenterazine-h, luminescence 30 min after substrate; absolute RLU (Fig. 1C) or normalized to mTurquoise2 fluorescence and set relative to BAX-TMD/BAX-TMD = 1 (Fig. 1F, 6C)

Chain of UniProt Q9UMX3 (Q9UMX3 whole entry, the tested form may be a part): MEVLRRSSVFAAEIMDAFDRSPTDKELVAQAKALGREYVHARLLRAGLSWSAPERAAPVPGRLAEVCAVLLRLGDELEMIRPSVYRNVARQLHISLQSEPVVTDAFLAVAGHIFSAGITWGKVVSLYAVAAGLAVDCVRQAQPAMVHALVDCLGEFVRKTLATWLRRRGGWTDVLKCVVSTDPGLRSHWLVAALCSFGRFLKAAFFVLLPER

SmBiT-BCL-2-TMD I230A (from UniProt P10415 1-239) (domain or fragment)
relative normalized luminescence (BAX-TMD/BAX-TMD = 1) (relative to the positive control) [1]: 0.21

SmBiT-BCL-2-TMD (transmembrane domain of BCL-2 as NanoBiT fusion) (from UniProt P10415 1-239) (domain or fragment)
normalized luminescence as percent of the positive control (BAX-/BAX-TMD) (% of the positive control) [1]: 46
relative normalized luminescence (BAX-TMD/BAX-TMD = 1) (relative to the positive control) [1]: 0.47
normalized luminescence as percent of the positive control (BAX-TMD/BAX-TMD) (% of the positive control) [2]: 30

SmBiT-BCL-2-TMD V226A I230A (from UniProt P10415 1-239) (domain or fragment)
relative normalized luminescence (BAX-TMD/BAX-TMD = 1) (relative to the positive control) [1]: 0.21

SmBiT-BCL-2-TMD L223A V226A I230A (from UniProt P10415 1-239) (domain or fragment)
relative normalized luminescence (BAX-TMD/BAX-TMD = 1) (relative to the positive control) [1]: 0.13

SmBiT-BCL-2-TMD L223A V226A (from UniProt P10415 1-239) (domain or fragment)
relative normalized luminescence (BAX-TMD/BAX-TMD = 1) (relative to the positive control) [1]: 0.21

BAX-TMD (transmembrane domain of BAX) as NanoBiT fusion (from UniProt Q07812 1-192) (domain or fragment)
luminescence [3]: 16600 RLU
